Results on 1 protein are retold here after publication PMC6823436, “Phase separation of Polo-like kinase 4 by autoactivation and clustering drives centriole biogenesis” (Nature Communications, 2019).

This data set deals with the molecule itself. Briefly: SEC; Superdex 75 Increase 10/300 GL; 20 mM Tris-HCl pH 7.5, 500 mM NaCl, 5% glycerol, 0.5 mM TCEP; 0.5 mL/min; BSA run for comparison; dimeric state in solution. (In general: Size exclusion chromatography separates by hydrodynamic size, large species first.)

B1: CPB CP (581–808), cryptic polo-box of Plk4 with the CP mutations (domain or fragment, human, UniProt O00444 581-808, looked up)
chain: GYQNRTLRSITSPLVAHRLKPIRQKTKKAVVSILDSEEVCVELVKEYASQEYVKEVLQISSDGNTITIYYPNGGRGFPLADRPPSPTDNISRYSFDNLPEKYWRKYQYASRFVQLVREKEPKIEYFDRYAKCILMENSPGADFEVWFYDGVKIHKTEDFIQVIEKTGKSYTLKSESEVNSLKEEIKMYMDHANEGHRICLALESIISEEERKTRSAPFFPIIIGRKPG
notes: PDB 6N46 is the His6-tagged form of the same limits; PDB 4N9J is the wild-type apo-CPB; also called CBP CP; source: E. coli Rosetta, purified (HisTrap, SEC, TEV cleavage, HisTrap and MBPTrap, SEC)
For the protein B1, the binding result is recorded as “binds”.
